The target of this assay is sTNF-R1 (soluble Tumor Necrosis Factor Receptor 1), spiked into buffer or human plasma (UniProt P19438). The experiment in a line: column run with spiked human plasma (9.74 ng/mL sTNF-R1), pre- against post-column concentration at each time point.
Chain of UniProt P19438 (P19438 30-211 limits assumed): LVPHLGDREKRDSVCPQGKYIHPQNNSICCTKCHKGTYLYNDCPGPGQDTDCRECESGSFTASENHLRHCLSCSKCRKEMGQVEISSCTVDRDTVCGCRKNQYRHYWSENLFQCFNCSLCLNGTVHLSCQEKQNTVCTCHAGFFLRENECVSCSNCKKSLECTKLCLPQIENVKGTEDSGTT

“recombinant single chain TNFα ligand (sc-TNFα ligand, comprising 3 TNFα monomers), covalently linked to agarose beads” came in with a binding efficiency above 95%.
